Results reported in the supplement of paper PMC10567573.

B1: FBXO34 (parent)
chain: ASSVESTLPVLEASSWKKQVSHDF

Variants of: B1
Test: protein stability index of a GFP-peptide fusion (GPS, HEK-293T) (PSI 1-6); higher = more stable
Conditions: c terminus: a fixed tail appended
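Note: lentivirally expressed fusions sorted by FACS into six bins by GFP to DsRed ratio, PSI derived from sequencing read proportions per bin multiplied by bin number.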

Row | Variant | protein stability index
1 | ASSPESTLPVLEASSWKKQVSHDF [V4P] | 2.77
2 | ASSSESTLPVLEASSWKKQVSHDF [V4S] | 3.01
3 | ASSGESTLPVLEASSWKKQVSHDF [V4G] | 3.15
4 | ASSTESTLPVLEASSWKKQVSHDF [V4T] | 2.88
5 | ASSCESTLPVLEASSWKKQVSHDF [V4C] | 2.45
6 | ASSWESTLPVLEASSWKKQVSHDF [V4W] | 2.5
7 | ASSIESTLPVLEASSWKKQVSHDF [V4I] | 2.75
8 | ASSFESTLPVLEASSWKKQVSHDF [V4F] | 2.1
9 | ASSAESTLPVLEASSWKKQVSHDF [V4A] | 3.39
10 | ASSMESTLPVLEASSWKKQVSHDF [V4M] | 2.51
11 | ASSQESTLPVLEASSWKKQVSHDF [V4Q] | 3.53
12 | ASSYESTLPVLEASSWKKQVSHDF [V4Y] | 2.46
13 | ASSHESTLPVLEASSWKKQVSHDF [V4H] | 3.39
14 | ASSEESTLPVLEASSWKKQVSHDF [V4E] | 3.67
15 | ASSRESTLPVLEASSWKKQVSHDF [V4R] | 2.64
16 | ASSDESTLPVLEASSWKKQVSHDF [V4D] | 2.4
17 | ASSVYSTLPVLEASSWKKQVSHDF [E5Y] | 1.9
18 | ASSVLSTLPVLEASSWKKQVSHDF [E5L] | 2.9
19 | ASSVKSTLPVLEASSWKKQVSHDF [E5K] | 2.48
20 | ASSVISTLPVLEASSWKKQVSHDF [E5I] | 2.17
21 | ASSVNSTLPVLEASSWKKQVSHDF [E5N] | 2.28
22 | ASSVMSTLPVLEASSWKKQVSHDF [E5M] | 2.84
23 | ASSVQSTLPVLEASSWKKQVSHDF [E5Q] | 2.51
24 | ASSVGSTLPVLEASSWKKQVSHDF [E5G] | 2.61

Row | Variant | protein stability index
25 | ASSVCSTLPVLEASSWKKQVSHDF [E5C] | 2.38
26 | ASSVASTLPVLEASSWKKQVSHDF [E5A] | 2.68
27 | ASSVVSTLPVLEASSWKKQVSHDF [E5V] | 2.9
28 | ASSVFSTLPVLEASSWKKQVSHDF [E5F] | 1.77
29 | ASSVDSTLPVLEASSWKKQVSHDF [E5D] | 3.22
30 | ASSVSSTLPVLEASSWKKQVSHDF [E5S] | 3.21
31 | ASSVHSTLPVLEASSWKKQVSHDF [E5H] | 2.4
32 | ASSVWSTLPVLEASSWKKQVSHDF [E5W] | 2.03
33 | NSSVESTLPVLEASSWKKQVSHDF [A1N] | 2.9
34 | VSSVESTLPVLEASSWKKQVSHDF [A1V] | 2.27
35 | ESSVESTLPVLEASSWKKQVSHDF [A1E] | 2.83
36 | LSSVESTLPVLEASSWKKQVSHDF [A1L] | 3.35
37 | YSSVESTLPVLEASSWKKQVSHDF [A1Y] | 1.78
38 | KSSVESTLPVLEASSWKKQVSHDF [A1K] | 2.1
39 | FSSVESTLPVLEASSWKKQVSHDF [A1F] | 2.11
40 | QSSVESTLPVLEASSWKKQVSHDF [A1Q] | 2.44
41 | PSSVESTLPVLEASSWKKQVSHDF [A1P] | 2.64
42 | SSSVESTLPVLEASSWKKQVSHDF [A1S] | 3.36
43 | CSSVESTLPVLEASSWKKQVSHDF [A1C] | 2.1
44 | RSSVESTLPVLEASSWKKQVSHDF [A1R] | 2.97
45 | ISSVESTLPVLEASSWKKQVSHDF [A1I] | 1.95
46 | TSSVESTLPVLEASSWKKQVSHDF [A1T] | 2.79
47 | DSSVESTLPVLEASSWKKQVSHDF [A1D] | 3.32
48 | MSSVESTLPVLEASSWKKQVSHDF [A1M] | 2.71

Row | Variant | protein stability index
49 | GSSVESTLPVLEASSWKKQVSHDF [A1G] | 2.99
50 | ASSVEYTLPVLEASSWKKQVSHDF [S6Y] | 2.48
51 | ASSVEHTLPVLEASSWKKQVSHDF [S6H] | 2.42
52 | ASSVEITLPVLEASSWKKQVSHDF [S6I] | 1.7
53 | ASSVENTLPVLEASSWKKQVSHDF [S6N] | 3.83
54 | ASSVEATLPVLEASSWKKQVSHDF [S6A] | 3.41
55 | ASSVERTLPVLEASSWKKQVSHDF [S6R] | 2.43
56 | ASSVEKTLPVLEASSWKKQVSHDF [S6K] | 2.76
57 | ASSVELTLPVLEASSWKKQVSHDF [S6L] | 3.18
58 | ASSVEMTLPVLEASSWKKQVSHDF [S6M] | 2.36
59 | ASSVEWTLPVLEASSWKKQVSHDF [S6W] | 3.02
60 | ASSVEPTLPVLEASSWKKQVSHDF [S6P] | 2.96
61 | ASSVETTLPVLEASSWKKQVSHDF [S6T] | 3.06
62 | ASSVECTLPVLEASSWKKQVSHDF [S6C] | 2.56
63 | ASSVEFTLPVLEASSWKKQVSHDF [S6F] | 1.76
64 | ASSVEDTLPVLEASSWKKQVSHDF [S6D] | 2.46
65 | ASKVESTLPVLEASSWKKQVSHDF [S3K] | 2.56
66 | ASIVESTLPVLEASSWKKQVSHDF [S3I] | 2.69
67 | ASWVESTLPVLEASSWKKQVSHDF [S3W] | 2.02
68 | ASAVESTLPVLEASSWKKQVSHDF [S3A] | 1.86
69 | ASQVESTLPVLEASSWKKQVSHDF [S3Q] | 2.88
70 | ASLVESTLPVLEASSWKKQVSHDF [S3L] | 2.62
71 | ASDVESTLPVLEASSWKKQVSHDF [S3D] | 3.29
72 | ASYVESTLPVLEASSWKKQVSHDF [S3Y] | 2.46

Row | Variant | protein stability index
73 | ASGVESTLPVLEASSWKKQVSHDF [S3G] | 3.27
74 | ASTVESTLPVLEASSWKKQVSHDF [S3T] | 3.22
75 | ASNVESTLPVLEASSWKKQVSHDF [S3N] | 3.07
76 | ASPVESTLPVLEASSWKKQVSHDF [S3P] | 3.31
77 | ASHVESTLPVLEASSWKKQVSHDF [S3H] | 3.38
78 | ASFVESTLPVLEASSWKKQVSHDF [S3F] | 2.38
79 | ASMVESTLPVLEASSWKKQVSHDF [S3M] | 2.63
80 | ASEVESTLPVLEASSWKKQVSHDF [S3E] | 3.72
81 | ASCVESTLPVLEASSWKKQVSHDF [S3C] | 2.19
82 | ASVVESTLPVLEASSWKKQVSHDF [S3V] | 2.49
83 | ASSVESPLPVLEASSWKKQVSHDF [T7P] | 2.31
84 | ASSVESKLPVLEASSWKKQVSHDF [T7K] | 2.82
85 | ASSVESLLPVLEASSWKKQVSHDF [T7L] | 2.42
86 | ASSVESNLPVLEASSWKKQVSHDF [T7N] | 3.55
87 | ASSVESFLPVLEASSWKKQVSHDF [T7F] | 2.92
88 | ASSVESCLPVLEASSWKKQVSHDF [T7C] | 3.31
89 | ASSVESQLPVLEASSWKKQVSHDF [T7Q] | 4.86
90 | ASSVESMLPVLEASSWKKQVSHDF [T7M] | 2.48
91 | ASSVESALPVLEASSWKKQVSHDF [T7A] | 2.9
92 | ASSVESHLPVLEASSWKKQVSHDF [T7H] | 3.21
93 | ASSVESELPVLEASSWKKQVSHDF [T7E] | 2.88
94 | ASSVESDLPVLEASSWKKQVSHDF [T7D] | 3.63
